From patent US20240092890A1 (JUNTENDO EDUCATIONAL FOUNDATION, published 2024)
Where a chain is given by its changes, count along the chain named.

T1: Ins 5 type mutant CALR protein on UT-7/TPO CALR Ins 5 cells (UniProt P27797 18-417)
T1 sequence (looked up): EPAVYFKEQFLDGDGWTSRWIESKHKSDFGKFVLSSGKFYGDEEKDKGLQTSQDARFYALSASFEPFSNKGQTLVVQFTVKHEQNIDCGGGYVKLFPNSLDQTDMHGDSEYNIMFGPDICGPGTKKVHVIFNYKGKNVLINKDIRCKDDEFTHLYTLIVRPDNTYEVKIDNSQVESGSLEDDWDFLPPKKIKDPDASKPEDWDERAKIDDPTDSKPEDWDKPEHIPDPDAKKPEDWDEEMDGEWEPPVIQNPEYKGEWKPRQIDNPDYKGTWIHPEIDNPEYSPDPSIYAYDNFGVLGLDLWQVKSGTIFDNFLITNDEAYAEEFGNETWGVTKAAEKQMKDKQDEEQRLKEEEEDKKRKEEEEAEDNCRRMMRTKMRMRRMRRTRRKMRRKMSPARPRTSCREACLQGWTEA

T2: protein having an Fc region and a His-tag added to the N-terminus of SEQ ID NO: 1
T2 construct: also called mutant CALR protein (antigen of the BLItz measurement); not shown: Fc region and His-tag at the N-terminus
T2 chain: RRMMRTKMRMRRM

B1: Antibody 62 (bispecific antibody)
chain 1: not shown
chain 2: DIQMTQSPSFVSASVGDRVTITCLASEDIYSYLAWYQQKPGKAPKLLIFAANRLQDGVPSRFSGGGSGTGFTLTISSLQPEDFATYFCLQGSKFPYTFGQGTKLEINRTVAAPSVFIFPPSDEQLKSGTASVVCLLNNFYPREAKVQWKVDNALQSGNSQESVTEQDSKDSTYSLSSTLTLSKADYEKHKVYACEVTHQGLSSPVTKSFNRGEC
B2: Antibody 82 (bispecific antibody)
chain 1: not shown
chain 2: B1 chain 2 with F10S, V11L, D56S, G65S, G70D, F87Y, Q100P, L104V, E105D, N107K
B3: Antibody 64 (bispecific antibody)
chain 1: not shown
chain 2: B1 chain 2
B4: Antibody 70 (bispecific antibody)
chain 1: not shown
chain 2: B1 chain 2 with D56S
B5: Antibody 78 (bispecific antibody)
chain 1: not shown
chain 2: B1 chain 2 with D56S, N107K
B6: Antibody 68 (bispecific antibody)
chain 1: not shown
chain 2: B1 chain 2 with D56S
B7: Antibody 59 (bispecific antibody)
chain 1: not shown
chain 2: B1 chain 2
B8: Antibody 76 (bispecific antibody)
chain 1: not shown
chain 2: B1 chain 2 with D56S, N107K
B9: Antibody 66 (bispecific antibody)
chain 1: not shown
chain 2: B1 chain 2
B10: Antibody 69 (bispecific antibody)
chain 1: not shown
chain 2: B1 chain 2 with D56S
B11: Antibody 67 (bispecific antibody)
chain 1: not shown
chain 2: B1 chain 2
B12: Antibody 58 (bispecific antibody)
chain 1: not shown
chain 2: B1 chain 2
B13: Antibody 71 (bispecific antibody)
chain 1: not shown
chain 2: B1 chain 2 with D56S
B14: Antibody 65 (bispecific antibody)
chain 1: not shown
chain 2: B1 chain 2
B15: Antibody 80 (bispecific antibody)
chain 1: not shown
chain 2: B1 chain 2 with F10S, V11L, G65S, G70D, F87Y, Q100P, L104V, E105D, N107K
B16: Antibody 83 (bispecific antibody)
chain 1: not shown
chain 2: B1 chain 2 with F10S, V11L, D56S, G65S, G70D, F87Y, Q100P, L104V, E105D, N107K
B17: Antibody 61 (bispecific antibody)
chain 1: not shown
chain 2: B1 chain 2
B18: Antibody 57 (bispecific antibody)
chain 1: not shown
chain 2: B1 chain 2
B19: Antibody 56 (bispecific antibody)
chain 1: not shown
chain 2: B1 chain 2
B20: Antibody 77 (bispecific antibody)
chain 1: not shown
chain 2: B1 chain 2 with D56S, N107K
B21: Antibody 74 (bispecific antibody)
chain 1: not shown
chain 2: B1 chain 2 with D56S, N107K
B22: Antibody 63 (bispecific antibody)
chain 1: not shown
chain 2: B1 chain 2
B23: Antibody 60 (bispecific antibody)
chain 1: not shown
chain 2: B1 chain 2
B24: Antibody 84 (bispecific antibody)
chain 1: not shown
chain 2: B1 chain 2 with F10S, V11L, D56S, G65S, G70D, F87Y, Q100P, L104V, E105D, N107K
B25: Antibody 72 (bispecific antibody)
chain 1: not shown
chain 2: B1 chain 2 with D56S
B26: Antibody 75 (bispecific antibody)
chain 1: not shown
chain 2: B1 chain 2 with D56S, N107K
B27: Antibody 112 (bispecific antibody, human IgG1, kappa, L234A L235A)
chain 1: not shown
chain 2: DIQMTQSPSSLSASVGDRVTITCLASEDIYSYLAWYQQKPGKAPKLLIFAANRLQDGVPSRFSGSGSGTDFTLTISSLQPEDFATYYCLQGSKFPYTFGPGTKVDIKGGGGSGGGGSGGGGSQVQLVQSGAEVKKPGSSVKVSCKASGYTFTRNFIHWIRQAPGQGLEWIGWIFPGDADTEYNQKFSGRATITADKSTSTAYMELSSLRSEDTAVYYCARGNYNYEYFDYWGQGTMVTVSSDKTHTCPPCPAPEAAGGPSVFLFPPKPKDTLMISRTPEVTCVVVDVSHEDPEVKFNWYVDGVEVHNAKTKPREEQYNSTYRVVSVLTVLHQDWLNGKEYKCKVSNKALPAPIEKTISKAKGQPREPQVCTLPPSREEMTKNQVSLSCAVKGFYPSDIAVEWESNGQPENNYKTTPPVLDSDGSFFLVSKLTVDKSRWQQGNVFSCSVMHEALHNHYTQKSLSLSPGK
chain 3: DIQMTQSPSSLSASVGDRVTITCLASEDIYSYLAWYQQKPGKAPKLLIFAANRLQDGVPSRFSGSGSGTDFTLTISSLQPEDFATYYCLQGSKFPYTFGPGTKVDIKRTVAAPSVFIFPPSDEQLKSGTASVVCLLNNFYPREAKVQWKVDNALQSGNSQESVTEQDSKDSTYSLSSTLTLSKADYEKHKVYACEVTHQGLSSPVTKSFNRGECGGGGSGGGGSQVQLVQSGGGVVQPGRSLRLSCKASGYTFTRYTMHWVRQAPGKGLEWIGYINPSRGYTNYNQKVKDRFTISRDNSKNTAFLQMDSLRPEDTGVYFCARYYDDHYSLDYWGQGTPVTVSSGGGGSGGGGSGGGGSDIQMTQSPSSLSASVGDRVTITCSASSSVSYMNWYQQTPGKAPKRWIYDTSKLASGVPSRFSGSGSGTDYTFTISSLQPEDIATYYCQQWSSNPFTFGQGTKLQITR
B28: Antibody 113 (bispecific antibody, human IgG1, kappa, L234A L235A)
chain 1: not shown
chain 2: B27 chain 2
chain 3: B27 chain 3 with D56S
B29: Antibody 79 (bispecific antibody)
chain 1: not shown
chain 2: B1 chain 2 with N107K
B30: Antibody 97 (bispecific antibody)
chain 1: not shown
chain 2: B1 chain 2 with F10S, V11L, G65S, G70D, F87Y, Q100P, L104V, E105D, N107K
B31: Antibody 73 (bispecific antibody)
chain 1: not shown
chain 2: B1 chain 2 with D56S
B32: Antibody 95 (bispecific antibody)
chain 1: not shown
chain 2: B1 chain 2 with F10S, V11L, G65S, G70D, F87Y, Q100P, L104V, E105D, N107K
B33: Antibody 81 (bispecific antibody)
chain 1: not shown
chain 2: B1 chain 2 with F10S, V11L, G65S, G70D, F87Y, Q100P, L104V, E105D, N107K
B34: Antibody 99 (bispecific antibody)
chain 1: not shown
chain 2: B1 chain 2 with F10S, V11L, G65S, G70D, F87Y, Q100P, L104V, E105D, N107K
B35: Antibody 87 (bispecific antibody)
chain 1: not shown
chain 2: B1 chain 2 with F10S, V11L, D56S, G65S, G70D, F87Y, Q100P, L104V, E105D, N107K
B36: Antibody 98 (bispecific antibody)
chain 1: not shown
chain 2: B1 chain 2 with F10S, V11L, G65S, G70D, F87Y, Q100P, L104V, E105D, N107K
B37: Antibody 96 (bispecific antibody)
chain 1: not shown
chain 2: B1 chain 2 with F10S, V11L, G65S, G70D, F87Y, Q100P, L104V, E105D, N107K
B38: Antibody 93 (bispecific antibody)
chain 1: not shown
chain 2: B1 chain 2 with F10S, V11L, D56S, G65S, G70D, F87Y, Q100P, L104V, E105D, N107K

target: T1, Ins 5 type mutant CALR protein on …; assay: cell-based or functional assay

Row | Binder | EC50 of cytotoxic activity (pM)
1 | B1 | 91 pM
2 | B2 | 22 pM
3 | B3 | 829 pM
4 | B4 | 507 pM
5 | B5 | 63 pM
6 | B6 | 27 pM
7 | B7 | 469 pM
8 | B8 | 300 pM
9 | B9 | 115 pM
10 | B10 | 162 pM
11 | B11 | 5900 pM
12 | B12 | 1530 pM
13 | B13 | 448 pM
14 | B14 | 397 pM
15 | B15 | 28 pM
16 | B16 | 110 pM
17 | B17 | 9760 pM
18 | B18 | 398 pM
19 | B19 | 45 pM
20 | B20 | 129 pM
21 | B21 | 31 pM
22 | B22 | 197 pM
23 | B23 | 77 pM
24 | B24 | 277 pM
25 | B25 | 93 pM
26 | B26 | 77 pM

Target: T2, protein having an Fc region and a …
Assay: BLItz biolayer interferometry, Fc/His-SEQ ID NO: 1 protein on the biosensor
Experimental: As another method, measurements were performed using the molecular interaction analysis system BLItz (ForteBio), which applies biolayer interferometry […]. Specifically, a protein having an Fc region and a His-tag added to the N-terminus of SEQ ID NO: 1 was immobilized at a concentration of 0.1 mg/mL using the Anti-Penta-HIS or ProteinA biosensor (ForteBio). Subsequently, the antibodies 1 to 114 made were prepared at a concentration of 500, 100, and 50 nM and reacted to acquire the dissociation constant.

Row | Kd | Binder
27 | < 1 pM | B27
28 | 32.4 pM | B28
29 | < 1 pM | B1
30 | < 1 pM | B2
31 | < 1 pM | B3
32 | < 1 pM | B4
33 | < 1 pM | B5
34 | < 1 pM | B29
35 | < 1 pM | B6
36 | < 1 pM | B7
37 | < 1 pM | B8
38 | < 1 pM | B9
39 | < 1 pM | B30
40 | < 1 pM | B31
41 | < 1 pM | B32
42 | < 1 pM | B10
43 | < 1 pM | B33
44 | < 1 pM | B11
45 | < 1 pM | B12

Row | Kd | Binder
46 | 554 pM | B13
47 | < 1 pM | B14
48 | < 1 pM | B34
49 | < 1 pM | B15
50 | < 1 pM | B16
51 | < 1 pM | B35
52 | < 1 pM | B17
53 | < 1 pM | B18
54 | < 1 pM | B19
55 | < 1 pM | B20
56 | < 1 pM | B21
57 | 262 pM | B22
58 | < 1 pM | B36
59 | < 1 pM | B23
60 | < 1 pM | B24
61 | < 1 pM | B25
62 | < 1 pM | B26
63 | < 1 pM | B37
64 | < 1 pM | B38
